These results are taken from paper PMC13170346.

Data set [1] deals with His6-PomZ (Myxococcus xanthus (DK1622?)). The data set is described as follows: BLI. The following applies: 1 mM ATP, 10 mM MgCl2; 5' biotin-TEG on both strands; BLI: 50 mM HEPES/NaOH pH 7.2, 50 mM KCl, 0.1 mM EDTA, 10% glycerol, 10 mM MgCl2, 1 mM β-mercaptoethanol, 0.05% Tween 20, 1 mM ATP; 100 nM DNA loaded; assay ….
Data set [2] addresses PomZ (Myxococcus xanthus) (UniProt Q1DEM0).
Data set [3] concerns the target T1, His6-PomZ (Myxococcus xanthus (DK1622?)) (UniProt Q1DEM0).
T1 sequence: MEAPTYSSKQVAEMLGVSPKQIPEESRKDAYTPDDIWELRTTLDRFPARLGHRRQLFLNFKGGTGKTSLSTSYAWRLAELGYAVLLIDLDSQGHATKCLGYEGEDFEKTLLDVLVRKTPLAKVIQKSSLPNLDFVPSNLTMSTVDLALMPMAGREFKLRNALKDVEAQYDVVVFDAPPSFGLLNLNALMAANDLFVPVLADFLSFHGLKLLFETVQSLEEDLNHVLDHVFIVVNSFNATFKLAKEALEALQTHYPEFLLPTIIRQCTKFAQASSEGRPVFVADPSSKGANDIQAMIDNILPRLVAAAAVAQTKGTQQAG
Briefly: BLI. The following applies: 5' biotin-TEG on both strands; BLI: 50 mM HEPES/NaOH pH 7.2, 50 mM KCl, 0.1 mM EDTA, 10% glycerol, 10 mM MgCl2, 1 mM β-mercaptoethanol, 0.05% Tween 20, 1 mM …; 100 nM DNA loaded; assay temp.

For data set [4], the target named is T2, PomY624-682-mCh (gD domain) (Myxococcus xanthus (DK1622?)) (UniProt Q1DEM1).
T2 sequence: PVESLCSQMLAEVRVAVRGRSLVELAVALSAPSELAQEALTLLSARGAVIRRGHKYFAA
Briefly: BLI. The following applies: 5' biotin-TEG on both strands; BLI: 50 mM HEPES/NaOH pH 7.2, 50 mM KCl, 0.1 mM EDTA, 10% glycerol, 10 mM MgCl2, 1 mM β-mercaptoethanol, 0.05% Tween 20, 1 mM …; 100 nM DNA loaded; assay temp.

cluster3 promoter PCR fragment registered a Kd in data set [1] of 24.3 µM.

With “His6-Sumo-PomY^496-682-mCh (domain or fragment)”, the specific His6-PomZ ATPase activity (NADH-coupled assay, 4 µM His6-PomZ, with DNA) with purified Sumo-PomY^496-682-mCh, 2 to 10 µM (ATP h^-1 µM^-1) in data set [2] worked out at 11.6. As to “GGGCCACCAAGCCCACCGCCGGCTCCAAGCGGCGGCGCCTGGAAGGCAAGAAGCGCACCTCCGAAAAAAAGGCCCTGAGAAACAGCAAATCCGGCTGGTGACCCAGGGTCCATCAGGACTCCAGTCACCCTGTCGCCGGACAGTCAGGGTGCGCCTAAAGTTTGCGAGCTCGCAGACGTTGCGAGGTCATCTGCTGCTCGCAGGGACCTCCTCCTGGGAATTTGCC (double strand) [cluster3 promoter PCR fragment]”, the Kd in data set [3] worked out at 24.3 µM. In data set [4], the binding result is given as “no binding”.
